In PMC4835091:

B1: FtsZ (purified, WT) [E. coli] / itself (parent)
chain: MFEPMELTNDAVIKVIGVGGGGGNAVEHMVRERIEGVEFFAVNTDAQALRKTAVGQTIQIGSGITKGLGAGANPEVGRNAADEDRDALRAALEGADMVFIAAGMGGGTGTGAAPVVAEVAKDLGILTVAVVTKPFNFEGKKRMAFAEQGITELSKHVDSLITIPNDKLLKVLGRGISLLDAFGAANDVLKGAVQGIAELITRPGLMNVDFADVRTVMSEMGYAMMGSGVASGEDRAEEAAEMAISSPLLEDIDLSGARGVLVNITAGFDLRLDEFETVGNTIRAFASDNATVVIGTSLDPDMNDELRVTVVATGIGMDKRPEITLVTNKQVQQPVMDRYQQHGMAPLTQEQKPVAKVVNDNAPQTAKEPDYLDIPAFLRKQAD
B2: FtsZ (purified, WT) [E. coli] / ZapD (purified) [E. coli] (parent)
chain 1: MQTQVLFEHPLNEKMRTWLRIEFLIQQLTVNLPIVDHAGALHFFRNVSELLDVFERGEVRTELLKELDRQQRKLQTWIGVPGVDQSRIEALIQQLKAAGSVLISAPRIGQFLREDRLIALVRQRLSIPGGCCSFDLPTLHIWLHLPQAQRDSQVETWIASLNPLTQALTMVLDLIRQSAPFRKQTSLNGFYQDNGGDADLLRLNLSLDSQLYPQISGHKSRFAIRFMPLDTENGQVPERLDFELACC
chain 2: B1 chain

Key:
itself = variants of: B1; assay: sedimentation (co-pelleting) assay, SDS-PAGE quantification; settings: with itself, 50 mM K-MOPS pH 6.5, 50 mM KCl, 2.5 mM MgCl2, 1 mM GTP, 3 µM BSA, read off a plot
[1] = variants of: B2; assay: co-sedimentation assay, SDS-PAGE quantification; settings: with ZapD (purified) [E. coli], 50 mM K-MOPS pH 6.5, 50 mM KCl, 2.5 mM MgCl2, 1 mM GTP, 3 µM BSA, read off a plot

| Variant | response (% FtsZ in pellet) (itself; 5 µM FtsZ with ZapD at 1:0.2) | response (% FtsZ in pellet) (itself; 5 µM FtsZ with ZapD at 1:1) | response (% FtsZ in pellet) (itself; 5 µM FtsZ, no ZapD) | response (% ZapD in pellet) ([1]; 5 µM FtsZ with ZapD at 1:0.2) | response (% ZapD in pellet) ([1]; 5 µM FtsZ with ZapD at 1:1) |
| --- | --- | --- | --- | --- | --- |
| chain 1 K380D | 29 | 41 | 27 | – | – |
| chain 1 K380D D383K | 43 | 64 | 23 | – | – |
| chain 1 D383K | 45 | 66 | 27 | – | – |
| chain 1 K380Q A382Q D383Q | 43 | 69 | 24 | – | – |
| chain 1 K380R D383R | 39 | 50 | 23 | – | – |
| chain 2 D383K | – | – | – | 71 | 60 |
| chain 2 K380D D383K | – | – | – | – | 49 |
| chain 2 K380R D383R | – | – | – | 16 | 35 |
| chain 2 K380D | – | – | – | 14 | 10 |
| chain 2 K380Q A382Q D383Q | – | – | – | 42 | 42 |
